Measurements reported in paper PMC12749725 (Nature Communications, 2025).
Changes are numbered by the printed parent chain. In names and notes the source's numbering stands. Several values for one entry are separate records, joined by “and”; a condition that tells them apart may be missing. Equal values may be shown once.

Key:
[1] = target: T1, BAI3_eCUB^253 (C-terminal extended CUB domain of BAI3, aa. 25-253) (human, UniProt O60242 25-253); assay: ITC
T1 sequence (looked up): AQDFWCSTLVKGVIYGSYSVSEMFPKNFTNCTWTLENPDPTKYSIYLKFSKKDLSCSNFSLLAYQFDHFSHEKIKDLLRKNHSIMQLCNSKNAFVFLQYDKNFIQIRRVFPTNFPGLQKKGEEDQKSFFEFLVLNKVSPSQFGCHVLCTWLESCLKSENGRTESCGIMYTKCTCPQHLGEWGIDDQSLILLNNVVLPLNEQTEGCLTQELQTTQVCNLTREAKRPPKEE

[2] = target: T2, BAI3 extracellular domain (ECD) (human, UniProt O60242 25-880); assay: ITC
T2 sequence (looked up): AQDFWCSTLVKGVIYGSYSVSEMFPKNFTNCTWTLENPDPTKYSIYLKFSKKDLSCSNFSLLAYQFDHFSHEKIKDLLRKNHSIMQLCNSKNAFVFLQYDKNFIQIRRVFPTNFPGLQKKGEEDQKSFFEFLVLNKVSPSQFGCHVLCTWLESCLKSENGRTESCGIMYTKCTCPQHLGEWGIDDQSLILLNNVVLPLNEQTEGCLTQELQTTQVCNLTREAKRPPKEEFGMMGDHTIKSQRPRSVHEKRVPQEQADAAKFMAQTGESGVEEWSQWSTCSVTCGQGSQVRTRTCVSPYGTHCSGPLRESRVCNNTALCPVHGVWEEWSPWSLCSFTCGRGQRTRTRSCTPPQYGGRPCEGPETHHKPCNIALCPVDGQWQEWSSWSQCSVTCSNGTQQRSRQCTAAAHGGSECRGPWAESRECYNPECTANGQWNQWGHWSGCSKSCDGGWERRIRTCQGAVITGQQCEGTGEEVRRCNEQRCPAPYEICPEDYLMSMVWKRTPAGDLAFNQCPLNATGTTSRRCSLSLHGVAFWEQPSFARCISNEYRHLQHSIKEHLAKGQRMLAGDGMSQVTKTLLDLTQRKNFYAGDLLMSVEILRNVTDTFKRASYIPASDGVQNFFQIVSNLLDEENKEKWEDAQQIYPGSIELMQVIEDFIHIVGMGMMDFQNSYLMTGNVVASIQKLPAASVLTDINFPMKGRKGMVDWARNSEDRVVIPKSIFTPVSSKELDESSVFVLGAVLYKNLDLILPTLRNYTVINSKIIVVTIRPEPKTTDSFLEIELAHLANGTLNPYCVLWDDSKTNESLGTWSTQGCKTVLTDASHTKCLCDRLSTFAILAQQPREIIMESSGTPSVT

SEC-MALS = target: the molecule itself; assay: SEC-MALS
SEC [3] = target: the molecule itself; assay: SEC
SEC [4] = target: the molecule itself; assay: SEC; remark: listed apart in the source

B1: C1ql1_gC1q (globular C1q domain of mouse C1ql1), wild type (domain or fragment)
chain: ATYTTVPRVAFYAGLKNPHEGYEVLKFDDVVTNLGNNYDAASGKFTCNIPGTYFFTYHVLMRGGDGTSMWADLCKNGQVRASAIAQDADQNYDYASNSVILHLDAGDEVFIKLDGGKAHGGNSNKYSTFSGFIIYSD
Kd [1]: ~150 nM
stoichiometry N [1]: 3 eCUB molecules per gC1q trimer
Kd [2]: ~1100 nM
stoichiometry N (SEC-MALS): 6 and 3

B2: full-length C1ql1, bacteria-expressed (without signal peptide) (natural protein, mouse, UniProt O88992 17-258, looked up)
chain: GPDGHYEMLGTCRMVCDPYPARGPGAGARSDGGDALSEQSGAPPPSTLVQGPQGKPGRTGKPGPPGPPGDRGPPGPVGPPGEKGEPGKPGPPGLPGSGGSGAISTATYTTVPRVAFYAGLKNPHEGYEVLKFDDVVTNLGNNYDAASGKFTCNIPGTYFFTYHVLMRGGDGTSMWADLCKNGQVRASAIAQDADQNYDYASNSVILHLDAGDEVFIKLDGGKAHGGNSNKYSTFSGFIIYSD
stoichiometry N (SEC [3]): 6 and 3

B3: C1ql1_gC1q D208N (domain or fragment, mouse)
chain: TTVPRVAFYAGLKNPHEGYEVLKFDDVVTNLGNNYDAASGKFTCNIPGTYFFTYHVLMRGGDGTSMWADLCKNGQVRASAIAQNADQNYDYASNSVILHLDAGDEVFIKLDGGKAHGGNSNKYSTFSGFIIYSD
binding result (SEC [4]): binds
fold weaker binding than wild type [1]: ~9 fold

B4: C1ql1_gC1q A209S (domain or fragment, mouse)
chain: B3 chain with N84D, A85S
binding result [1]: binds

B5: C1ql1_gC1q D214N (domain or fragment, mouse)
chain: B3 chain with N84D, D90N
binding result [1]: binds

B6: C1ql1_gC1q D210N (domain or fragment, mouse)
chain: B3 chain with N84D, D86N
binding result [1]: binds
